# Laboratory results published in patent US20230002480A1.
# Key:
# Assay in all cases: cell-based or functional assay
# [1] = target: HIV-1 Env of pseudovirus 1056_10_TA11_1826 (HIV-1)
# [2] = target: HIV-1 Env of pseudovirus 191084 B7-19 (HIV-1)
# [3] = target: HIV-1 Env of pseudovirus 246F C1G (HIV-1)
# [4] = target: HIV-1 Env of pseudovirus 3301.v1.c24 (HIV-1)
# [5] = target: HIV-1 Env of pseudovirus 6540.v4.c1 (HIV-1)
# [6] = target: HIV-1 Env of pseudovirus 6811.v7.c18 (HIV-1)
# [7] = target: HIV-1 Env of pseudovirus 7030102001E5(Rev-) (HIV-1)
# [8] = target: HIV-1 Env of pseudovirus 9004SS_A3_4 (HIV-1)
# [9] = target: HIV-1 Env of pseudovirus 928-28 (HIV-1)
# [10] = target: HIV-1 Env of pseudovirus AC10.0.29 (HIV-1)
# [11] = target: HIV-1 Env of pseudovirus C2101.c01 (HIV-1)
# [12] = target: HIV-1 Env of pseudovirus CAP210.2.00.E8 (HIV-1)
# [13] = target: HIV-1 Env of pseudovirus CNE20 (HIV-1)
# [14] = target: HIV-1 Env of pseudovirus CNE21 (HIV-1)
# [15] = target: HIV-1 Env of pseudovirus CNE5 (HIV-1)
# [16] = target: HIV-1 Env of pseudovirus CNE52 (HIV-1)
# [17] = target: HIV-1 Env of pseudovirus Ce0393_C3 (HIV-1)
# [18] = target: HIV-1 Env of pseudovirus Ce0682_E4 (HIV-1)
# [19] = target: HIV-1 Env of pseudovirus Ce2060_G9 (HIV-1)
# [20] = target: HIV-1 Env of pseudovirus Ce704809221_1B3 (HIV-1)
# [21] = target: HIV-1 Env of pseudovirus Du172.17 (HIV-1)
# [22] = target: HIV-1 Env of pseudovirus Q461.e2 (HIV-1)
# [23] = target: HIV-1 Env of pseudovirus T250-4 (HIV-1)
# [24] = target: HIV-1 Env of pseudovirus T255-34 (HIV-1)
# [25] = target: HIV-1 Env of pseudovirus T257-31 (HIV-1)
# [26] = target: HIV-1 Env of pseudovirus THRO4156.18 (HIV-1)
# [27] = target: HIV-1 Env of pseudovirus TRJO4551.58 (HIV-1)
# [28] = target: HIV-1 Env of pseudovirus WITO4160.33 (HIV-1)
# [29] = target: HIV-1 Env of pseudovirus X1193_c1 (HIV-1)
# [30] = target: HIV-1 Env of pseudovirus X2088_c9 (HIV-1)
# [31] = target: HIV-1 Env of pseudovirus X2131_C1_B5 (HIV-1)
# [32] = target: HIV-1 Env of pseudovirus ZM135M.PL10a (HIV-1)
# [33] = target: HIV-1 Env of pseudovirus ZM197M.PB7 (HIV-1)
# [34] = target: HIV-1 Env of pseudovirus ZM214M.PL15 (HIV-1)
# [35] = target: HIV-1 Env of pseudovirus ZM249M.PL1 (HIV-1)
# [36] = target: HIV-1 Env of pseudovirus 0815.v3.c3 (HIV-1)
# [37] = target: HIV-1 Env of pseudovirus T251-18 (HIV-1)
substance,measurement,setting,value
8ANC195 (antibody),neutralization IC50,[1],> 50 µg/mL
same,neutralization IC80,[1],> 50 µg/mL
same,neutralization IC50,[2],> 50 µg/mL
same,neutralization IC80,[2],> 50 µg/mL
same,neutralization IC50,[3],12.8 µg/mL
same,neutralization IC80,[3],> 50 µg/mL
same,"IC50, titer in TZM.bl cells",[4],> 50 µg/mL
same,"IC80, titer in TZM.bl cells",[4],> 50 µg/mL
same,"IC50, titer in TZM.bl cells",[5],> 50 µg/mL
same,"IC80, titer in TZM.bl cells",[5],> 50 µg/mL
same,"IC50, titer in TZM.bl cells",[6],5.34 µg/mL
same,"IC80, titer in TZM.bl cells",[6],27.6 µg/mL
same,neutralization IC50,[7],0.86 µg/mL
same,neutralization IC80,[7],8.32 µg/mL
same,neutralization IC50,[8],0.17 µg/mL
same,neutralization IC80,[8],0.81 µg/mL
same,neutralization IC50,[9],> 50 µg/mL
same,neutralization IC80,[9],> 50 µg/mL
same,neutralization IC50,[10],0.88 µg/mL
same,neutralization IC80,[10],7 µg/mL
same,"IC50, titer in TZM.bl cells",[11],0.48 µg/mL
same,"IC80, titer in TZM.bl cells",[11],3.54 µg/mL
same,neutralization IC50,[12],> 50 µg/mL
same,neutralization IC80,[12],> 50 µg/mL
same,neutralization IC50,[13],0.5 µg/mL
same,neutralization IC80,[13],3.19 µg/mL
same,neutralization IC50,[14],0.27 µg/mL
same,neutralization IC80,[14],1.52 µg/mL
same,"IC50, titer in TZM.bl cells",[15],2.12 µg/mL
same,"IC80, titer in TZM.bl cells",[15],9.67 µg/mL
same,neutralization IC50,[16],5.59 µg/mL
same,neutralization IC80,[16],43.1 µg/mL
same,neutralization IC50,[17],6.77 µg/mL
same,neutralization IC80,[17],> 50 µg/mL
same,neutralization IC50,[18],0.2 µg/mL
same,neutralization IC80,[18],1.29 µg/mL
same,neutralization IC50,[19],6.2 µg/mL
same,neutralization IC80,[19],> 50 µg/mL
same,neutralization IC50,[20],0.48 µg/mL
same,neutralization IC80,[20],3.52 µg/mL
same,neutralization IC50,[21],> 30 µg/mL
same,neutralization IC80,[21],> 30 µg/mL
same,neutralization IC50,[22],0.63 µg/mL
same,neutralization IC80,[22],2.51 µg/mL
same,"IC50, titer in TZM.bl cells",[23],> 50 µg/mL
same,"IC80, titer in TZM.bl cells",[23],> 50 µg/mL
same,"IC50, titer in TZM.bl cells",[24],0.54 µg/mL
same,"IC80, titer in TZM.bl cells",[24],8.09 µg/mL
same,neutralization IC50,[25],0.32 µg/mL
same,neutralization IC80,[25],3.89 µg/mL
same,neutralization IC50,[26],> 50 µg/mL
same,neutralization IC80,[26],> 50 µg/mL
same,neutralization IC50,[27],0.19 µg/mL
same,neutralization IC80,[27],1.17 µg/mL
same,neutralization IC50,[28],> 50 µg/mL
same,neutralization IC80,[28],> 50 µg/mL
same,"IC50, titer in TZM.bl cells",[29],0.27 µg/mL
same,"IC80, titer in TZM.bl cells",[29],1.66 µg/mL
same,"IC50, titer in TZM.bl cells",[30],> 50 µg/mL
same,"IC80, titer in TZM.bl cells",[30],> 50 µg/mL
same,"IC50, titer in TZM.bl cells",[31],3.47 µg/mL
same,"IC80, titer in TZM.bl cells",[31],> 50 µg/mL
same,neutralization IC50,[32],> 50 µg/mL
same,neutralization IC80,[32],> 50 µg/mL
same,neutralization IC50,[33],23.4 µg/mL
same,neutralization IC80,[33],> 50 µg/mL
same,neutralization IC50,[34],0.91 µg/mL
same,neutralization IC80,[34],12.3 µg/mL
same,neutralization IC50,[35],> 50 µg/mL
same,neutralization IC80,[35],> 50 µg/mL
VRC01 (antibody),"IC50, titer in TZM.bl cells",[36],0.06 µg/mL
same,"IC80, titer in TZM.bl cells",[36],0.13 µg/mL
same,"IC50, titer in TZM.bl cells",[1],0.92 µg/mL
same,"IC80, titer in TZM.bl cells",[1],3.28 µg/mL
same,"IC50, titer in TZM.bl cells",[3],> 10 µg/mL
same,"IC80, titer in TZM.bl cells",[3],> 10 µg/mL
same,"IC50, titer in TZM.bl cells",[4],0.14 µg/mL
same,"IC80, titer in TZM.bl cells",[4],0.32 µg/mL
same,"IC50, titer in TZM.bl cells",[5],> 50 µg/mL
same,"IC80, titer in TZM.bl cells",[5],> 50 µg/mL
same,"IC50, titer in TZM.bl cells",[6],0.09 µg/mL
same,"IC80, titer in TZM.bl cells",[6],0.26 µg/mL
same,"IC50, titer in TZM.bl cells",[7],0.54 µg/mL
same,"IC80, titer in TZM.bl cells",[7],2.08 µg/mL
same,"IC50, titer in TZM.bl cells",[9],0.41 µg/mL
same,"IC80, titer in TZM.bl cells",[9],1.7 µg/mL
same,"IC50, titer in TZM.bl cells",[10],2.2 µg/mL
same,"IC80, titer in TZM.bl cells",[10],6.5 µg/mL
same,"IC50, titer in TZM.bl cells",[11],0.36 µg/mL
same,"IC80, titer in TZM.bl cells",[11],1.17 µg/mL
same,"IC50, titer in TZM.bl cells",[12],> 50 µg/mL
same,"IC80, titer in TZM.bl cells",[12],> 50 µg/mL
same,"IC50, titer in TZM.bl cells",[15],0.37 µg/mL
same,"IC80, titer in TZM.bl cells",[15],1.1 µg/mL
same,"IC50, titer in TZM.bl cells",[17],0.62 µg/mL
same,"IC80, titer in TZM.bl cells",[17],2.37 µg/mL
same,"IC50, titer in TZM.bl cells",[18],0.08 µg/mL
same,"IC80, titer in TZM.bl cells",[18],0.48 µg/mL
same,"IC50, titer in TZM.bl cells",[19],0.29 µg/mL
same,"IC80, titer in TZM.bl cells",[19],1.48 µg/mL
same,"IC50, titer in TZM.bl cells",[20],0.55 µg/mL
same,"IC80, titer in TZM.bl cells",[20],2.05 µg/mL
same,"IC50, titer in TZM.bl cells",[21],> 50 µg/mL
same,"IC80, titer in TZM.bl cells",[21],> 50 µg/mL
same,"IC50, titer in TZM.bl cells",[22],0.49 µg/mL
same,"IC80, titer in TZM.bl cells",[22],1.6 µg/mL
same,"IC50, titer in TZM.bl cells",[23],> 50 µg/mL
same,"IC80, titer in TZM.bl cells",[23],> 50 µg/mL
same,"IC80, titer in TZM.bl cells",[37],11.2 µg/mL
same,"IC50, titer in TZM.bl cells",[24],0.7 µg/mL
same,"IC80, titer in TZM.bl cells",[24],2.7 µg/mL
same,"IC50, titer in TZM.bl cells",[25],2.8 µg/mL
same,"IC80, titer in TZM.bl cells",[25],8.66 µg/mL
same,"IC80, titer in TZM.bl cells",[26],23 µg/mL
same,"IC50, titer in TZM.bl cells",[27],0.08 µg/mL
same,"IC80, titer in TZM.bl cells",[27],0.21 µg/mL
same,"IC50, titer in TZM.bl cells",[28],0.15 µg/mL
same,"IC80, titer in TZM.bl cells",[28],0.41 µg/mL
same,"IC50, titer in TZM.bl cells",[29],0.11 µg/mL
same,"IC80, titer in TZM.bl cells",[29],0.32 µg/mL
same,"IC50, titer in TZM.bl cells",[30],> 50 µg/mL
same,"IC80, titer in TZM.bl cells",[30],> 50 µg/mL
same,"IC50, titer in TZM.bl cells",[31],0.51 µg/mL
same,"IC80, titer in TZM.bl cells",[31],1.54 µg/mL
same,"IC50, titer in TZM.bl cells",[32],0.35 µg/mL
same,"IC80, titer in TZM.bl cells",[32],2.7 µg/mL
same,"IC50, titer in TZM.bl cells",[33],0.36 µg/mL
same,"IC80, titer in TZM.bl cells",[33],1.6 µg/mL
same,"IC50, titer in TZM.bl cells",[34],0.44 µg/mL
same,"IC80, titer in TZM.bl cells",[34],2.6 µg/mL
same,"IC50, titer in TZM.bl cells",[35],0.05 µg/mL
same,"IC80, titer in TZM.bl cells",[35],0.23 µg/mL
